{"source": "patent US20190016826A1", "about": "(Genentech, published 2019)", "binders": {"B1": {"name": "Fab94 (anti-HtrA1 antibody YW505.94, Fab format) (Fab, V domains shown)", "VH": "EVQLVESGGGLVQPGGSLRLSCAASGFNISGYYIHWVRQAPGKGLEWVGWIDPYGGDTNYADSVKGRFTISADTSKNTAYLQMNSLRAEDTAVYYCARGTFLTSWGHYFDYWGQGT", "VL": "DIQMTQSPSSLSASVGDRVTITCRASQDVSTAVAWYQQKPGKAPKLLIYSASFLYSGVPSRFSGSGSGTDFTLTISSLQPEDFATYYCQQSYTTPPTFGQGTKVEIKR"}}, "assay_in_all_cases": "ELISA on plate-coated HuHtrA1_PD mutants (Example 7); column head on the sheet reads YW505.94 Fab, legend paragraph 70 says IgG94", "key": {"N224A": {"target": "T1, N224A", "T1 construct": "also called HuHtrA1_PD(N224A)", "description": "(§1) The mutants were expressed in E. coli and the trimers purified by size exclusion chromatography as described in Example 2. Binding was determined using an ELISA assay, which was conducted using a MAXISORP™ microtiter plate coated with HuHtrA1_PD mutants at 2 μg/ml in PBS for 1 h, followed by blocking with PBST buffer (0.5% BSA and 0.05% Tween 20 in PBS) for 1 h at room temperature. […] The plates were washed with PBT buffer (0.05% Tween 20 in PBS), and HRP-conjugated goat anti-human IgG (H+L) (Invitrogen) was added (1:5000 in PBST buffer) and incubated for 1 h. The plates were washed with PBT buffer and developed by adding tetramethylbenzidine substrate (Kirkegaard and Perry Laboratories, Gaithersburg, Md.). The absorbance at 450 nm was plotted as a function of antibody concentration in solution to determine EC₅₀ values.\n(§2) In trypsin-like serine proteases these loops are known to be part of the specificity determining region that interacts with substrates."}, "E239A": {"target": "T2, E239A", "T2 construct": "also called HuHtrA1_PD(E239A)", "description": "as §1, §2"}, "D244A": {"target": "T3, D244A", "T3 construct": "also called HuHtrA1_PD(D244A)", "description": "as §1, §2"}, "HuHtrA1_PD(V201A)": {"target": "T4, HuHtrA1_PD(V201A) (human, UniProt F1N152 168-386 (bovine entry))", "T4 construct": "Alanine mutant of HuHtrA1_PD; also called HuHtrA1 mutant V201A; not shown: thrombin cleavage site", "T4 chain": "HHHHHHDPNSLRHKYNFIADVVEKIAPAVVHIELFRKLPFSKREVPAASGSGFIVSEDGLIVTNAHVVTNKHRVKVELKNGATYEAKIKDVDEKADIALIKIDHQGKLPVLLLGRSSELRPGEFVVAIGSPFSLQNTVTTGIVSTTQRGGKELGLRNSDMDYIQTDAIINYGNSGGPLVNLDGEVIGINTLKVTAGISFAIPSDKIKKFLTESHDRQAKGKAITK", "description": "as §1, §2"}, "HuHtrA1_PD(H220A)": {"target": "T5, HuHtrA1_PD(H220A) (human, UniProt F1N152 168-386 (bovine entry))", "T5 construct": "Alanine mutant of HuHtrA1_PD; also called HuHtrA1 mutant H220A; not shown: thrombin cleavage site", "T5 chain": "T4 chain with A47V, H66A", "description": "as §1, §2"}, "HuHtrA1_PD(T223A)": {"target": "T6, HuHtrA1_PD(T223A) (human, UniProt F1N152 168-386 (bovine entry))", "T6 construct": "Alanine mutant of HuHtrA1_PD; also called HuHtrA1 mutant T223A; not shown: thrombin cleavage site", "T6 chain": "T4 chain with A47V, T69A", "description": "as §1, §2"}, "HuHtrA1_PD(K225A)": {"target": "T7, HuHtrA1_PD(K225A) (human, UniProt F1N152 168-386 (bovine entry))", "T7 construct": "Alanine mutant of HuHtrA1_PD; also called HuHtrA1 mutant K225A; not shown: thrombin cleavage site", "T7 chain": "T4 chain with A47V, K71A", "description": "as §1, §2"}, "HuHtrA1_PD(E247A)": {"target": "T8, HuHtrA1_PD(E247A) (human, UniProt F1N152 168-386 (bovine entry))", "T8 construct": "Alanine mutant of HuHtrA1_PD; also called HuHtrA1 mutant E247A; not shown: thrombin cleavage site", "T8 chain": "T4 chain with A47V, E93A", "description": "as §1, §2"}}, "note": "Changes are numbered by the printed parent chain.", "data": [{"binder": "B1", "values": [{"measurement": "EC50", "setting": "N224A", "result": 135, "unit": "nM"}, {"measurement": "Relative to WT EC50 Fold Decrease", "setting": "N224A", "result": 24, "unit": "fold"}, {"measurement": "EC50", "setting": "E239A", "result": 5.4, "unit": "nM"}, {"measurement": "Relative to WT EC50 Fold Decrease", "setting": "E239A", "result": 0.9, "unit": "fold"}, {"measurement": "EC50", "setting": "D244A", "result": 4.7, "unit": "nM"}, {"measurement": "Relative to WT EC50 Fold Decrease", "setting": "D244A", "result": 0.8, "unit": "fold"}, {"measurement": "EC50", "setting": "HuHtrA1_PD(V201A)", "result": 112, "unit": "nM"}, {"measurement": "Relative to WT EC50 Fold Decrease", "setting": "HuHtrA1_PD(V201A)", "result": 20, "unit": "fold"}, {"measurement": "EC50", "setting": "HuHtrA1_PD(H220A)", "result": 32, "unit": "nM"}, {"measurement": "Relative to WT EC50 Fold Decrease", "setting": "HuHtrA1_PD(H220A)", "result": 5.7, "unit": "fold"}, {"measurement": "EC50", "setting": "HuHtrA1_PD(T223A)", "result": 62.9, "unit": "nM"}, {"measurement": "Relative to WT EC50 Fold Decrease", "setting": "HuHtrA1_PD(T223A)", "result": 11.2, "unit": "fold"}, {"measurement": "EC50", "setting": "HuHtrA1_PD(K225A)", "result": 52.2, "unit": "nM"}, {"measurement": "Relative to WT EC50 Fold Decrease", "setting": "HuHtrA1_PD(K225A)", "result": 9.3, "unit": "fold"}, {"measurement": "EC50", "setting": "HuHtrA1_PD(E247A)", "result": 41.7, "unit": "nM"}, {"measurement": "Relative to WT EC50 Fold Decrease", "setting": "HuHtrA1_PD(E247A)", "result": 7.4, "unit": "fold"}]}]}
